Patent publication US20240392013A1, “IL1RAP ANTIBODIES AND USES THEREOF” (STELEXIS THERAPEUTICS, LLC, priority 2021, published 2024)

Columns and labels:
[1] = tested on: IL1-induced NFκB activity; test: HEK-BlueIL1β NFκB Reporter Assay; format: cell-based; settings: nM range, read-out: IC50, inhibition of IL1-induced NFκB activity
Protocol: The HEK-Blue IL1β (Invivogen, Cat #hkb-il1b) cell line was used to monitor NFκB activity upon stimulation with IL1β cytokine. In this cell line the secreted embryonic alkaline phosphatase reporter gene (SEAP) is inducibly expressed under the control of IFN-β minimal promoter fused to NFκB/AP-1. Specificity to IL1β cytokine was achieved by blockage of TNF-α response. The cells were maintained in the presence of hygromycin (200 μg/ml) and zeocin (100 μg/ml).
For the functional assay, cells were plated at a density of 5×10^4 cells/well in 96-well plates. Cells were treated with each antibody at the highest concentration of 200 μg/ml followed by seven serial 1:3 dilutions and incubated for 45 minutes at 37° C./5% CO2 in humified incubator. Cells were then stimulated with IL1β ([…]) and incubated overnight at 37° C./5% CO2 in humified incubator. Every treatment was conducted in triplicates. Following, supernatants from each well were mixed with Quanti-Blue substrate (Invivogen, CA USA; Cat #rep-qb1) according to manufacturer's recommendations and secreted SEAP was measured using spectrophotometer at 650 nm.

[2] = target: T1, hIL1RAP (Homo sapiens, UniProt Q9NPH3); test: Kinetics of IL1RAP mAbs by Octet, human IL1RAP; format: binding; design: extracellular domain His-tagged, Cat #10121-H08H; His; purchased Sino Biological lot MB08MA1301 (catalogue number not given)
T1 sequence (Q9NPH3 21-367 limits assumed): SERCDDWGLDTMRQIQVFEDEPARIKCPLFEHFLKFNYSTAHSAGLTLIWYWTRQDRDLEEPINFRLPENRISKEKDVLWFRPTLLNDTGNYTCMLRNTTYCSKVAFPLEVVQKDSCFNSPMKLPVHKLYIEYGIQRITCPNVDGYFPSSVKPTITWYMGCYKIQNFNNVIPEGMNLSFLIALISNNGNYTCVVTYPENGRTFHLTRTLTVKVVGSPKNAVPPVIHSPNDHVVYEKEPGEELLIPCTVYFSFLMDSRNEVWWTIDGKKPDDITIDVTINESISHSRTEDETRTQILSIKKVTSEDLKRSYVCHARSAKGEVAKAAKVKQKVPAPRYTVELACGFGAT
Protocol: (§1) Antibodies were diluted in kinetics buffer (0.1% BSA, 0.02% Tween-20 and 0.05% NaN3 in PBS) and loaded onto 16 channel anti-mouse IgG Fc capture sensors (AMC, Cat #2001073; Sartorius, Göttingen, Germany). Human, huIL1RAP-His (Sino Biological, lot: MB08MA1301), and monkey, cyIL1RAP-His (Lake Pharma, NY, USA; lot:16205819371) proteins were titrated starting from the highest concentration of 100 nM and followed by 50 nM and 25 nM. Purified antibodies were loaded at 5 μg/ml in kinetics buffer. The experimental parameters selected to determine the kinetic constants were Baseline for 60 s, Loading of antibody to sensor for 180 s, Association of analyte to antibody for 120 s, Dissociation for 1200 s and Regeneration in 10 mM Glycine pH 1.7 for 4×30 s.
(§2) Regeneration cycle tracking was selected for 12 cycles. Binding to human and cynomolgus IL1RAP was measured and KD (M) kinetics were calculated. Also, the disassociation rate (Kdis) (1/s) and association rate (Kon) (1/Ms) kinetics were calculated (data not shown).

[3] = tested on: IL33-induced NFκB activity; test: HEK-BlueIL33 NFκB Reporter Assay; format: cell-based, human; settings: nM range, read-out: IC50, inhibition of IL33-induced NFκB activity
Description: HEK-Blue IL33 (Invivogen, Cat #hkb-hil33) cell line was used to monitor NFκB activity upon stimulation with IL33 cytokine. The secreted embryonic alkaline phosphatase reporter gene (SEAP) is inducible expressed under the control of IFN-β minimal promoter fused to NFκB/AP-1. HEK-BlueIL33 cells were also generated upon stable transfection with human IL1RL1 (ST2) gene. Specificity to IL33 cytokine was achieved by blockage of TNF-α and IL1 response. Cells are maintained in the presence of hygromycin (200 μg/ml), zeocin (100 μg/ml) and blasticidin (10 μg/ml).
For the functional assay, cells were plated at a density of 5×10^4 cells/well in 96-well plates. Cells were treated with each antibody at the highest concentration of 200 μg/ml followed by seven serial 1:3 dilutions and incubated for 45 minutes at 37° C./5% CO^2 in humified incubator. Cells were then stimulated with IL33 (12 μM) and incubated overnight at 37° C./5% CO2 in humified incubator. Every treatment was conducted in triplicates. Following, supernatants from each well were mixed with Quanti-Blue substrate (Invivogen, Cat #rep-qb1) according to manufacturer's recommendations and secreted SEAP was measured using spectrophotometer at 650 nm.

[4] = tested on: cyIL1RAP; test: Kinetics of IL1RAP mAbs by Octet, cynomolgus IL1RAP; format: binding
Protocol: as §1, §2

[5] = tested on: patient-derived AML samples; test: Cell viability of patient-derived AML samples, CellTiter-Glo; format: cell-based, human; settings: 15 patient-derived AML samples; 0.1-100 nM, 6 days
Protocol: Primary patient-derived AML cells collected using leukapheresis or peripheral blood draw were selected based on expression levels of IL1RAP, IL1R1 and IL1RL1. On study day 0, cell viability was calculated, and cells were seeded at a density of 20,000 viable cells/well in 96-well plates. Cells were treated on Day 0 with IL1RAP monoclonal antibodies at a concentration of 100 nM followed by 5-fold serial dilutions. Cytarabine treatment (5 μM) was used as a positive control. Plates were kept at 37° C./5% CO2 in humified incubator and media was not changed during the duration of the assay. On Day 6, plates were removed from incubator and equilibrated to room temperature for up to 30 minutes. Then CellTiter-Glo was added to wells (100 μl) and plates were mixed for 2 minutes on plate rocker, followed by 10 minutes incubation at room temperature. Luminescent signal was recorded using Tecan plate reader and IC50s were calculated.

Row | Molecule | IC50 [1] [nM] | hIL1RAP kdis(1/s) [2] [s⁻¹] | hIL1RAP kon(1/Ms) [2] [M⁻¹ s⁻¹] | IC50 [3] [nM] | cyIL1RAP kdis(1/s) [4] [s⁻¹] | cyIL1RAP kon(1/Ms) [4] [M⁻¹ s⁻¹] | Inhibition of viability [5]
1 | 74804_07K10A: anti-IL1RAP mAb; VH SEQ ID NO:5, VL SEQ ID NO:22, κ light chain (antibody, V domains shown, 74804_07K10A VH; 74804_07K10A VL, 74804_29D13A VL and 74804_43F04A VL) VH: QVQLLQSGAEVKKPGSSVKVSCRASGGTFSIYAIDWVRQAPGQGLEWMGGIIPISGTENSAQNFQDRITITADKSTNTAYMELSSLRSEDTAVYYCARNGATSDAFDIWGQGTMVTVSS VL: EIVLTQSPGTLSLSPGERATLSCRASLSVSSNYLAWFQQRPGQAPRLLIYGVSRRATGIPDRFSGSGSGTDFTLTISRLEPEDFAVYYCQQYGSSPLTFGGGTKVEIK | 3.19 | 0.000234 | 392100 | 6.62 | 0.000283 | 376800 | 
2 | 74804_29D13A: anti-IL1RAP mAb; VH SEQ ID NO:6, VL SEQ ID NO:22, κ light chain (antibody, V domains shown, 74804_12A21B VH and 74804_29D13A VH; 74804_07K10A VL, 74804_29D13A VL and 74804_43F04A VL) VH: QVQLLQSGAEVKKPGSSVKVSCKASGGTFSIYAIDWVRQAPGQGLEWMGGIIPIFGTANSAQKFQGRVTITADKSTSTAYMELSSLRSEDTAVYYCARNGATSDAFDMWGQGTMVTVSS VL: EIVLTQSPGTLSLSPGERATLSCRASLSVSSNYLAWFQQRPGQAPRLLIYGVSRRATGIPDRFSGSGSGTDFTLTISRLEPEDFAVYYCQQYGSSPLTFGGGTKVEIK | 1.85 | 0.000361 | 336100 | 8.75 | 0.00065 | 329600 | 
3 | 74804_51C10A: anti-IL1RAP mAb; VH SEQ ID NO:8, VL SEQ ID NO:24, κ light chain (antibody, V domains shown, 74804_51C10A VH; 74804_51C10A VL) VH: QVQLLQSGAEVKKPGSSVKVSCKASGGTFNIYAIDWVRQAPGQGLEWMGGIIPIFGTANSAQKFQGRVTITADKSTNTAYMELSSLRSEDTAVYYCARNGATSDAFDIWGQGTMVTVSS VL: EIVLTQSPGTLSLSPGERATLSCRASQSVSSNYLAWFQQRPGQAPRLLIYGVSRRATGIPDRFSGSGSGTDFTLTISRLEPEDFAVYYCQQYGSSPLTFGGGTKVEIK | 2.5 | 0.000301 | 343500 | 13 | 0.000459 | 325600 | 
4 | 74804_27I24A: anti-IL1RAP mAb; VH SEQ ID NO:13, VL SEQ ID NO:29, λ light chain (antibody, V domains shown, 74804_27I24A VH; 74804_27I24A VL) VH: EVQLVESGGGLVKPGGSLRLSCAASGFTFITYSMNWVRQAPGKGLEWVSSISSISSYIYYADSVKGRFTISRDNAKNSLYLQMDSLRAEDSAVYYCAREGIVGPTGYFDSWGQGTLVTVSS VL: QSVLTQPPSVSAAPGQKVTISCSGSSSNIGNHYVSWYQQLPGTAPKLLIYDNNKRPSGIPDRFSGSKSGTSATLGITGLQTGDEADYYCGTWDSRLSAYWVFGGGTKLTVL | 1.96 | 0.000747 | 350400 | 8.31 | 0.001071 | 379500 | inhibition of viability of patient-derived AML samples
5 | 74804_25H09A: anti-IL1RAP mAb; VH SEQ ID NO:9, VL SEQ ID NO:25, κ light chain (antibody, V domains shown, 74804_25H09A VH; 74804_25H09A VL) VH: QVQLVQSGAEVKKPGSSVKVSCKASGDTFSNYAITWVRQAPGQGLEWIVGFSPIFGTANYAQKFQGRVTITADKSTSTAYMELSSLISEDTAVYYCAWGSGNFNWFDPWGQGTLVTVSS VL: AIRMTQSPSSFSASTGDRVTITCRASQGISSYLAWYQQKPGKAPKLLIYAASTLQSGVPSRFSGSGSGTDFTLTISSLQSEDFATYYCQQYYSYPLTFGGGTKVEIK | 1.77 | 0.000337 | 154500 | 6.55 | 0.000297 | 142000 | 
6 | 74804_18L05A: anti-IL1RAP mAb; VH SEQ ID NO:4, VL SEQ ID NO:21, κ light chain (antibody, V domains shown, 74804_18L05A VH; 74804_18L05A VL) VH: QVQLVQSGAEVKKPGASVKVSCKTSGYTFTSCCMHWVRQAPGQGLEWMGIINPSVGSTSYAQKFQGIVTMTRDTSTSTVYMELSSLRSEDTAVYYCAVDSSGSRYYYGMDVWGQGTTVTVSS VL: EIVMTQSPATLSVSPGERATLSCRASQSVRSNLAWYQQRPGQAPRLLIYGTSTRATGIPARFSGSGSGTEFTLTISSLQSEDFAVYYCQQYNYWPYTFGQGTKLEIK | 1.73 | 0.00037 | 227800 | 4.81 | 0.000954 | 221100 | 
7 | 74804_05B24A: anti-IL1RAP mAb; VH SEQ ID NO:10, VL SEQ ID NO:26, κ light chain (antibody, V domains shown, 74804_05B24A VH; 74804_05B24A VL) VH: EVQLVDSGGGLVKPGGSLRLSCAATGFTFSNVWMSWVRQGSGKGLEWVGRIKSKTDGGTIDYAAPVKGRFTISRDDPKNTLYLQMNSLKTEDTAVYYCTTGELLGFDYWGQGTLVTVSS VL: DIVMTQSPLSLPVTPGEPASISCRSGQSLLHNNGFNCLAWYLQKPGQSPQLLIYLGSNRASGVPDRFSGSGSGTDFTLKISRVEAEDVGVFYCMQTLQTPITFGQGTRLEIK | 0.446 | 0.000491 | 294400 | 2.72 | 0.000563 | 267900 | inhibition of viability of patient-derived AML samples
